From patent US20180057557A1 (University of Pennsylvania, published 2018) come the findings set out here.

The target of this assay is T1, recombinant folate receptor alpha protein (immobilized) (UniProt P15328 25-233, limits assumed).
T1 construct: also called FRa
As to the kind of experiment: binding of GFP+ IR T cells to immobilized recombinant protein (FIG. 3A).

T1 sequence (P15328 25-233 limits assumed): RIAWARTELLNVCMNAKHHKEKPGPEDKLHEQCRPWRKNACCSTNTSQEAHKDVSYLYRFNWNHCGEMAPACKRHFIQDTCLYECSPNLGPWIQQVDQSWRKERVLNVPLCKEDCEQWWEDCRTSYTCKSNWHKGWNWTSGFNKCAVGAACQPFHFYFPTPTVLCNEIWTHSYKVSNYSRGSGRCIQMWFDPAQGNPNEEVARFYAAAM

B1: Anti-FSHRb33-53FSH-28z immunoreceptor (on primary human T cells) (other)
chain: not shown
notes: also called anti-FSHR (33-53)-28z IR; Anti-FSHR(33-53)-28z
B1: the binding result is recorded as “no binding”.

B2: Anti-FSHRb51-65FSH-28z immunoreceptor (on primary human T cells) (other, not shown: large carriers)
chain: not shown
notes: Chimeric immunoreceptor on transduced primary human T cells; also called anti-FSHR (51-65)-28z IR; Anti-FSHR(51-65)-28z
B2: the binding result is reported as “no binding”.
